Source: patent publication US20250263481A1 (SHIJIAZHUANG YILING PHARMACEUTICAL, published 2025)
Substitutions are numbered along the chain they refer to.

B1: YL-G1-19-03 (antibody, human IgG1, kappa)
heavy: not shown
light: DIVMTQSPSSLTVTAGEKVTMSCKSSQSLLNSGNQKNYLTWYQQKPGQPPKLLIYWASTRESGVPDRFTGSGSGTDFTLTISSVQAEDLAIYYCQNNYFYPLTFGAGTRLELKRTVAAPSVFIFPPSDEQLKSGTASVVCLLNNFYPREAKVQWKVDNALQSGNSQESVTEQDSKDSTYSLSSTLTLSKADYEKHKVYACEVTHQGLSSPVTKSFNRGEC
notes: Mouse/human chimeric IgG1 kappa, first generation
B2: YL-G1-19-02 (antibody, human IgG1, kappa)
heavy: not shown
light: B1 light with K45R, D66V, I91V, N97A, F99I, A106T, R109K
notes: Mouse/human chimeric IgG1 kappa, first generation; also called YL-G1-02
B3: YL-G2-C (antibody, human IgG1, kappa)
heavy: QIQLVQSGPELRKPGETVKISCKASGFPFTTDGMSWVKQAPGKGLKWMGWINTYSGVPTYADDFKGRVAFSLETSASTAYLQIKNLKNEDTATYFCARFRRGNALDNWGQGTSVTVSSASTKGPSVFPLAPSSKSTSGGTAALGCLVKDYFPEPVTVSWNSGALTSGVHTFPAVLQSSGLYSLSSVVTVPSSSLGTQTYICNVNHKPSNTKVDKRVEPKSCDKTHTCPPCPAPELVGGPSVFLLPPKPKDTLMISRTPEVTCVVVDVSHEDPEVKFNWYVDGVEVHNAKTKPPEEQYNSTLRVVSVLTVLHQDWLNGKEYKCKVSNKALPAPIEKTISKAKGQPREPQVYTLPPSREEMTKNQVSLTCLVKGFYPSDIAVEWESNGQPENNYKTTPLVLDSDGSFFLYSKLTVDKSRWQQGNVFSCSVMHEALHNHYTQKSLSLSPGK
light: B1 light
notes: Second generation, Fc-engineered
B4: YL-G2-B (antibody, human IgG1, kappa)
heavy: EVQLQQSGPELEKPGASVKISCKASGYSFTGYKMNWVKQSNGKSLEWIGNIDPYYGGTTYNQKFKGKATLTVDKSSSTAYMQLKSLTSEDSAVYYCARYGKGNTMDYWGQGTSVTVSSASTKGPSVFPLAPSSKSTSGGTAALGCLVKDYFPEPVTVSWNSGALTSGVHTFPAVLQSSGLYSLSSVVTVPSSSLGTQTYICNVNHKPSNTKVDKRVEPKSCDKTHTCPPCPAPELVGGPSVFLLPPKPKDTLMISRTPEVTCVVVDVSHEDPEVKFNWYVDGVEVHNAKTKPPEEQYNSTLRVVSVLTVLHQDWLNGKEYKCKVSNKALPAPIEKTISKAKGQPREPQVYTLPPSREEMTKNQVSLTCLVKGFYPSDIAVEWESNGQPENNYKTTPLVLDSDGSFFLYSKLTVDKSRWQQGNVFSCSVMHEALHNHYTQKSLSLSPGK
light: B1 light with K45R, D66V, I91V, N97A, F99I, A106T, R109K
notes: also called YL-G2-B batch 1; YL-G2-B batch 2

Columns and labels:
[1] = target: human CLDN18.2 expressed on cells (human); experiment: cell-based or functional assay
[2] = target: human CLDN18.2 expressed on cells (human); experiment: cell-based or functional assay; remark: listed apart in the source
[3] = target: human CLDN18.2 expressed on cells (human); experiment: cell-based or functional assay; remark: listed apart in the source
[4] = target: human CLDN18.2 expressed on cells (human); experiment: cell-based or functional assay; remark: listed apart in the source
[5] = target: T1, human CLDN18.2 expressed on cells (human); experiment: flow cytometry (geometric mean, Alexa Fluor 647 anti-human IgG Fc secondary) on CLDN18.2-expressing 293T cells
T1 construct: also called huCLDN18.2; CLDN18.2-expressing 293T cells
Protocol: (§1) CLDN18.2-expressing 293T cells and CLDN18.1-expressing 293T cells at a density of 2×10⁶ cells/ml in FACS buffer ([…]) were mixed with a dilution series ([…] in FACS buffer) of the chimeric antibodies, the reference antibody, or a IgG negative control (50 μL) in a 96-well V-bottom plate and incubated for 30 min on ice. After a wash with 200 μL/well FACS buffer, cells were resuspended in 30 μL/well secondary antibody Alexa Fluor® 647 AffiniPure Goat Anti-Human IgG, […] specific (Jackson, Cat. #109-605-098) and incubated for 20 min on ice. After three washes with 200 μL/well FACS buffer, cells were resuspended with 150 μl/well FACS buffer and subjected to FACS using BD LSR II Flow Cytometer (HTS). Geometric mean was used for data analysis and plots were made using Prism GraphPad.

[6] = target: T2, human CLDN18.1 expressed on cells (human, UniProt P56856 1-261); experiment: flow cytometry (geometric mean, Alexa Fluor 647 anti-human IgG Fc secondary) on CLDN18.1-expressing 293T cells
T2 construct: also called huCLDN18.1; CLDN18.1-expressing 293T cells
T2 sequence (P56856 whole entry): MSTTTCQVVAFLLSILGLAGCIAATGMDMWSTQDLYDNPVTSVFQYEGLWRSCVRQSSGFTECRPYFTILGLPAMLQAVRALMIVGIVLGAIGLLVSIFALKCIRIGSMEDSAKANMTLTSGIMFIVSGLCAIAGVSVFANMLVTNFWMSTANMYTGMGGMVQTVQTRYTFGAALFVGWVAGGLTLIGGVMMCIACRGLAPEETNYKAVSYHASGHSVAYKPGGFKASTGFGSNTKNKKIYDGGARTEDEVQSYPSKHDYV
Protocol: as §1

[7] = target: T1, human CLDN18.2 expressed on cells; experiment: cell-based or functional assay; remark: listed apart in the source
[8] = target: T1, human CLDN18.2 expressed on cells; experiment: KinExA 4000, antibody constant, CHO cells over-expressing huCLDN18.2 titrated
Protocol: A KinExA 4000 instrument was also used to measure binding affinity of the antibodies to surface protein of intact cells, i.e., CHO cells over-expressing huCLDN18.2. Concentration of the antibodies was held constant (CBP) and concentration of whole cells with surface protein were varied (titrant). Concentration of whole cells with surface proteins were diluted three-fold. Titrated cells were incubated with the constant binding partner (CBP). Once equilibrium was reached, the samples were centrifuged, the supernatants were recovered, and the free CBP was detected with a fluorescently labeled anti-CBP molecule.
To establish a more accurate Kd, two equilibrium curves were prepared and analyzed. One curve with low concentration of CBP at 100 pM (200 pM binding sites) and 10⁶ cells/mL with three-fold dilutions, and one curve with high concentration of CBP at 10 nM (20 nM binding sites) and 10⁶ cells/mL with three-fold dilutions. The KinExA 4000 measured the amount of unbound CBP in solution. Analysis was performed using Sapidyne Instruments n-Curve Analysis Software version 4.4.26.

[9] = target: T1, human CLDN18.2 expressed on cells; experiment: flow cytometry (percent FITC-positive cells, GAH-FITC secondary) on CHO cells expressing huCLDN18.2
Protocol: CHO cells expressing huCLDN18.2 were used to assess the binding of the antibodies. Cells were seeded at 5×10⁵ cells per 100 μl into a well of a 96-well plate for each sample. Then, 100 μl of each serially diluted antibody was added to the cells, each dilution started at 40 µg/ml and was diluted 5-fold. Therefore, the final concentration of each antibody starts at 20 µg/ml followed by a 5-fold serial dilution. After 1 hour, the cells were washed twice and 100 μl of GAH-FITC (1:200 dilution) was added to each well. After 30 minutes, the cells were washed twice and resuspended in 120 μl of FACS buffer. The cells were analyzed via flow cytometry.
Unstained cells were used as a reference to set up overall target cell gating and to establish the FITC-negative populations, allowing us to establish the FITC-positive cell gate for each cell line. Additionally, the mean fluorescence intensity (MFI) of the entire population of cells was calculated to secondarily validate the FITC-positive results. The ratio of the gated positive cell number to the total live cell number is taken as the percentage of positive cells.

Row | Binder | CDC on CT26 CLDN18.2 cells, LDH: EC50 [1] [nM] | CDC on CT26 CLDN18.2 cells, LDH: max (% cytotoxity) [1] [%] | CDC on KATOIII CLDN18.2 cells, LDH: EC50 [2] [nM] | CDC on KATOIII CLDN18.2 cells, LDH: max (% cytotoxity) [2] [%] | ADCC on KATOIII CLDN18.2 cells, LDH: EC50 [3] [nM] | ADCC on KATOIII CLDN18.2 cells, LDH: max (% cytotoxity) [3] [%] | ADCC on NCI-N87 CLDN18.2 cells, LDH: EC50 [4] [nM] | ADCC on NCI-N87 CLDN18.2 cells, LDH: max (% cytotoxity) [4] [%] | EC50 (read off the curve) [5] [µg/mL] | binding result [6] | ADCC, FACS: EC50 [7] [nM] | ADCC, LDH: EC50 [7] [nM] | Kd [8] [nM] | EC50 (read off the curve) [9] [µg/mL] | further results
1 | B1 | 0.24 | 62.2 | ~4.98 | 67 | 0.21 | 16.7 | 0.13 | 15.2 | ~0.6 | no binding (tested: about 30 ug/ml) |  |  |  |  | 
2 | B2 | 0.26 | 73.4 | 1.95 | 35.4 | 0.16 | 19.9 | 0.072 | 16.8 | ~0.7 | no binding (tested: about 30 ug/ml) | ~0.224 | 0.3 |  |  | 
3 | B3 | 0.1 | 65.2 | ~6.04 | 74.6 | 0.019 | 17.6 | 0.0078 | 14.9 |  |  |  |  | 0.0386 | ~0.0006 | 
4 | B4 |  |  |  |  |  |  |  |  |  |  | 0.0073 | 0.012 | 0.0094 | ~0.0006 | CDC on CT26 CLDN18.2 cells, LDH: EC50 (batch 1) [1]: 0.14 nM; CDC on CT26 CLDN18.2 cells, LDH: EC50 (batch 2) [1]: 0.12 nM; CDC on KATOIII CLDN18.2 cells, LDH: EC50 (batch 1) [2]: 1.24 nM; CDC on KATOIII CLDN18.2 cells, LDH: EC50 (batch 2) [2]: 1.33 nM; ADCC on KATOIII CLDN18.2 cells, LDH: EC50 (batch 1) [3]: 0.028 nM; ADCC on KATOIII CLDN18.2 cells, LDH: EC50 (batch 2) [3]: 0.018 nM; ADCC on NCI-N87 CLDN18.2 cells, LDH: EC50 (batch 1) [4]: 0.0067 nM; ADCC on NCI-N87 CLDN18.2 cells, LDH: EC50 (batch 2) [4]: 0.012 nM
